Laboratory results published in patent US20170254813A1 (VENTANA MEDICAL SYSTEMS, published 2017).

Tests used:
[1] = molecular target: T1, CD21 (complement receptor type 2) (UniProt P20023 21-1033, limits assumed); assay: in situ proximity assay on FFPE normal tonsil sections
T1 construct: Endogenous protein in tissue section
T1 sequence (looked up): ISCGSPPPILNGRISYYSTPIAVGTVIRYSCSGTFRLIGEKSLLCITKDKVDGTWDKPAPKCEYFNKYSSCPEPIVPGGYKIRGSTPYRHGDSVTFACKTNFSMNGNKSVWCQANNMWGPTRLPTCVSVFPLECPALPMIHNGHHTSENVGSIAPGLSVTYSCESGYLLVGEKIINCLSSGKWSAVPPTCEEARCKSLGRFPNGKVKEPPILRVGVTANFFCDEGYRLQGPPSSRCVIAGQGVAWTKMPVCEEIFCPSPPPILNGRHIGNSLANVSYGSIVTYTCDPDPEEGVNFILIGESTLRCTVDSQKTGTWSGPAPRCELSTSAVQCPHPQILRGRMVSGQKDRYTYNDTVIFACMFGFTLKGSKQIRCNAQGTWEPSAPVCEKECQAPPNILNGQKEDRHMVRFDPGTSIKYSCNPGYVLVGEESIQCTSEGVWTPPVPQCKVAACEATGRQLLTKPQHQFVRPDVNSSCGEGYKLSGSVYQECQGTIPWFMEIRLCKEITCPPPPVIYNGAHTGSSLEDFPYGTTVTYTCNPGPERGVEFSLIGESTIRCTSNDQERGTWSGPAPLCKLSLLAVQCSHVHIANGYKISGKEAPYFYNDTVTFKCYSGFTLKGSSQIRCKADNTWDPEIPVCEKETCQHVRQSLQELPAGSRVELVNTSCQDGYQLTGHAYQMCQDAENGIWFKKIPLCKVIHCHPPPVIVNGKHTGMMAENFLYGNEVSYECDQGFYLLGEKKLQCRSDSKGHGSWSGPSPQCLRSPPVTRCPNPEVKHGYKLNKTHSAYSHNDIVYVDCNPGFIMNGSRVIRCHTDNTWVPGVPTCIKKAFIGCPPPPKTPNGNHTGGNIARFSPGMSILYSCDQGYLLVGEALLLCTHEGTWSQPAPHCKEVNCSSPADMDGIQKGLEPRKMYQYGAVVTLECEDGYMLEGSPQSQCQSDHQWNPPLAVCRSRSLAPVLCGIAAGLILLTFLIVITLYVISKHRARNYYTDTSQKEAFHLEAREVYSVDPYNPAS
Protocol: (§1) IHC staining was performed on a VENTANA BenchMark XT automated slide-processing system (Ventana). For all IHC staining, FFPE sections were first deparaffinization with EZ Prep solution (Ventana) and washed with reaction buffer. Antigen retrieval was carried out in Cell Conditioning 1 (Ventana) (100° C.; 92 minutes) and again washed with 1× reaction buffer (Ventana). […] After thorough wash with reaction buffer, secondary antibody conjugates of GAR-PEG₈-SS-HA-N₃ and GAM-PEG₄-CCH (100 μL of 10 μg/mL each) were added to slides and incubated at 37° C. for 32 minutes. The slides were washed in reaction buffer and water before a drop of 100 μL of HEPES buffer (0.15 M, pH 7.4) was added to the slides. To initiate the azide-acetylene click reaction, 100 μL of Cu(I) catalyst solution was added onto the slide. One working example of the Cu(I) solution contained 0.6 mM CuSO₄, 3 mM THPTA, 10 mM HEPES (pH=7.4), 40% DMSO (v/v) and 4 mM of sodium ascorbate (freshly made and added to CuSO₄ immediately before adding to slide). The click reaction was allowed to proceed for 32 minutes and the slides were washed thoroughly in reaction buffer. […] For chromogenic based detection using diaminobenzidine (DAB), ready-to-use solutions of DAB, H₂O₂ and Copper from an [sequence] […]

PMS2 = molecular target: T2, PMS2 (UniProt P54278 1-862); assay: in situ proximity assay on Hela cell xenograft sections
T2 construct: Endogenous protein of Hela cells in xenograft
T2 sequence (looked up): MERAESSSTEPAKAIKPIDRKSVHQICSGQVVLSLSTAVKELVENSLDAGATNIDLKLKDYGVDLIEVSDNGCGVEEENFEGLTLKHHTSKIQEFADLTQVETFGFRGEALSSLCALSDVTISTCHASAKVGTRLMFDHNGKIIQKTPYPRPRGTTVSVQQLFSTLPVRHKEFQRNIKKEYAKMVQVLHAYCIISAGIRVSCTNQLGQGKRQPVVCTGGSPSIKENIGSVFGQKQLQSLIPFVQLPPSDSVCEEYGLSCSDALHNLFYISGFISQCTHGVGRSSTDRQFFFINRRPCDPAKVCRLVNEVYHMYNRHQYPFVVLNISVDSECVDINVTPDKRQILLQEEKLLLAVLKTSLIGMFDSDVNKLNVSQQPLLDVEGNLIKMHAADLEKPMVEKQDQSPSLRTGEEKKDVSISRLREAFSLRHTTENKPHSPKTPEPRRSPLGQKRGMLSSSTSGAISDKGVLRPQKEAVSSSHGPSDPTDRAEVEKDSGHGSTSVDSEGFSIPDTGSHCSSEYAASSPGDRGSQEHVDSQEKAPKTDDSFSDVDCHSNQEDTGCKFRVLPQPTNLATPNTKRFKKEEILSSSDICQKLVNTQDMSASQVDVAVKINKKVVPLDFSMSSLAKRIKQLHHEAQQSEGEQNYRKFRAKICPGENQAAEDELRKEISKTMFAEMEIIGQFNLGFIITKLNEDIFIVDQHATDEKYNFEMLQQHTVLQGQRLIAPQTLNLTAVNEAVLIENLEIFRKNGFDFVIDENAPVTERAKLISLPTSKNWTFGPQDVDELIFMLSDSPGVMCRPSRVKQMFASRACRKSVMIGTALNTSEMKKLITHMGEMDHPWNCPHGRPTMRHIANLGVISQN

β-catenin = molecular target: T3, β-catenin (UniProt P35222 2-781); assay: in situ proximity assay (chemical ligation and hapten transfer) on FFPE tonsil and skin sections
T3 construct: Endogenous protein in tissue section; also called beta-catenin
T3 sequence (looked up): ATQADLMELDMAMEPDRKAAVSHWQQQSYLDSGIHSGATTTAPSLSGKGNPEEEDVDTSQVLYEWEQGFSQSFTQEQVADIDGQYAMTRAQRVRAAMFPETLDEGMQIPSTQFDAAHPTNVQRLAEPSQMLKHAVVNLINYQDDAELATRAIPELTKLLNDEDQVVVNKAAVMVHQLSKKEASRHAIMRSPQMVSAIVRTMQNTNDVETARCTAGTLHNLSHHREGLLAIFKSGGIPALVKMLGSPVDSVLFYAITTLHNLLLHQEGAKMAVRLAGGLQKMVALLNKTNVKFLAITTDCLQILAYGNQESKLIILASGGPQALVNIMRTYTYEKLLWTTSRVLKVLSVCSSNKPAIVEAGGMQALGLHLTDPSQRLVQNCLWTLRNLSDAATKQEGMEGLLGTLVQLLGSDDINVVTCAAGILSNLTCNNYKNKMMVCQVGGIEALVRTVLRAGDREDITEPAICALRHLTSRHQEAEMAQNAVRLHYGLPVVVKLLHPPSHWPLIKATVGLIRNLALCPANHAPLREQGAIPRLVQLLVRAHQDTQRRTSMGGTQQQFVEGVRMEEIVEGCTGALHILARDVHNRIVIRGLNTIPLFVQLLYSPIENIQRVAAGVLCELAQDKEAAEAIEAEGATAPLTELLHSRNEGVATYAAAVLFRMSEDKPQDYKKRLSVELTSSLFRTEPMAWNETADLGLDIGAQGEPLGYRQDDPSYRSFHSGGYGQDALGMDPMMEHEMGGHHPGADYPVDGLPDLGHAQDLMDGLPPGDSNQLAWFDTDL
Protocol: as §1

B1: CD19 (receptor, UniProt P15391 20-556, looked up)
chain: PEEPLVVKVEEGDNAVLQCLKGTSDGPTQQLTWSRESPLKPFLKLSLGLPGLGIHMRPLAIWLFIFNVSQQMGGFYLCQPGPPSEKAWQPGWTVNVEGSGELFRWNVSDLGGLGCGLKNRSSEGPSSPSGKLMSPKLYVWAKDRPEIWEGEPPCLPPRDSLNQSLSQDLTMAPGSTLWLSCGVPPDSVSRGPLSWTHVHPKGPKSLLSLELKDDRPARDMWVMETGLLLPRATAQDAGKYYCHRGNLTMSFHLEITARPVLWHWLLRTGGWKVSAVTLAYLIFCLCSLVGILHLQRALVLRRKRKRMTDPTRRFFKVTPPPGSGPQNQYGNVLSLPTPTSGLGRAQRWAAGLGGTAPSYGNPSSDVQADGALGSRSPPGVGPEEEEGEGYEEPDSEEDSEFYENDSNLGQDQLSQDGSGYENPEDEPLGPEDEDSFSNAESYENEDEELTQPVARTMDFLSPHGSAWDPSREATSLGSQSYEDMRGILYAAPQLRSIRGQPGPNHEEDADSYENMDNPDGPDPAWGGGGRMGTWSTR
notes: Endogenous protein in tissue section
binding result [1]: binds

B2: MLH1 (other, UniProt P40692 2-756, looked up)
chain: SFVAGVIRRLDETVVNRIAAGEVIQRPANAIKEMIENCLDAKSTSIQVIVKEGGLKLIQIQDNGTGIRKEDLDIVCERFTTSKLQSFEDLASISTYGFRGEALASISHVAHVTITTKTADGKCAYRASYSDGKLKAPPKPCAGNQGTQITVEDLFYNIATRRKALKNPSEEYGKILEVVGRYSVHNAGISFSVKKQGETVADVRTLPNASTVDNIRSIFGNAVSRELIEIGCEDKTLAFKMNGYISNANYSVKKCIFLLFINHRLVESTSLRKAIETVYAAYLPKNTHPFLYLSLEISPQNVDVNVHPTKHEVHFLHEESILERVQQHIESKLLGSNSSRMYFTQTLLPGLAGPSGEMVKSTTSLTSSSTSGSSDKVYAHQMVRTDSREQKLDAFLQPLSKPLSSQPQAIVTEDKTDISSGRARQQDEEMLELPAPAEVAAKNQSLEGDTTKGTSEMSEKRGPTSSNPRKRHREDSDVEMVEDDSRKEMTAACTPRRRIINLTSVLSLQEEINEQGHEVLREMLHNHSFVGCVNPQWALAQHQTKLYLLNTTKLSEELFYQILIYDFANFGVLRLSEPAPLFDLAMLALDSPESGWTEEDGPKEGLAEYIVEFLKKKAEMLADYFSLEIDEEGNLIGLPLLIDNYVPPLEGLPIFILRLATEVNWDEEKECFESLSKECAMFYSIRKQYISEESTLSGQQSEVPGSIPNSWKWTVEHIVYKALRSHILPPKHFTEDGNILQLANLPDLYKVFERC
notes: Endogenous protein of Hela cells in xenograft
binding result (PMS2): binds

B3: E-cadherin (other, UniProt P12830 155-882, looked up)
chain: DWVIPPISCPENEKGPFPKNLVQIKSNKDKEGKVFYSITGQGADTPPVGVFIIERETGWLKVTEPLDRERIATYTLFSHAVSSNGNAVEDPMEILITVTDQNDNKPEFTQEVFKGSVMEGALPGTSVMEVTATDADDDVNTYNAAIAYTILSQDPELPDKNMFTINRNTGVISVVTTGLDRESFPTYTLVVQAADLQGEGLSTTATAVITVTDTNDNPPIFNPTTYKGQVPENEANVVITTLKVTDADAPNTPAWEAVYTILNDDGGQFVVTTNPVNNDGILKTAKGLDFEAKQQYILHVAVTNVVPFEVSLTTSTATVTVDVLDVNEAPIFVPPEKRVEVSEDFGVGQEITSYTAQEPDTFMEQKITYRIWRDTANWLEINPDTGAISTRAELDREDFEHVKNSTYTALIIATDNGSPVATGTGTLLLILSDVNDNAPIPEPRTIFFCERNPKPQVINIIDADLPPNTSPFTAELTHGASANWTIQYNDPTQESIILKPKMALEVGDYKINLKLMDNQNKDQVTTLEVSVCDCEGAAGVCRKAQPVEAGLQIPAILGILGGILALLILILLLLLFLRRRAVVKEPLLPPEDDTRDNVYYYDEEGGGEEDQDFDLSQLHRGLDARPEVTRNDVAPTLMSVPRYLPRPANPDEIGNFIDENLKAADTDPTAPPYDSLLVFDYEGSGSEAASLSSLNSSESDKDQDYDYLNEWGNRFKKLADMYGGGEDD
notes: Endogenous protein in tissue section; also called E-cadherein
binding result (β-catenin): binds
